According to patent US20140087995A1 (published 2014):
Numbered stars: 1 amine (or outer) side, 2 acyl side, 3 side chain; on linkers, the order of the positions; unused ones are H or OH. Bridge positions count the residues as written; N and C are the ends. Side chains are listed from the residue outwards. Ends that are not written are not given here. * marks the point of attachment. C20 diacid = O=C(O)CCCCCCCCCCCCCCCCCCC(=O)*; γGlu = O=C(O)[C@H](CCC(=O)[*:2])N[*:1]; AEEA = NCCOCCOCC(=O)O

T1: rat calcitonin receptor (rat, UniProt P32214 25-516)
T1 construct: whole, on cells; membranes of transiently transfected BHK tk'ts 13 cells (Assay VIII); also called rCTR; rat calcitonin (a) receptor
T1 sequence (looked up): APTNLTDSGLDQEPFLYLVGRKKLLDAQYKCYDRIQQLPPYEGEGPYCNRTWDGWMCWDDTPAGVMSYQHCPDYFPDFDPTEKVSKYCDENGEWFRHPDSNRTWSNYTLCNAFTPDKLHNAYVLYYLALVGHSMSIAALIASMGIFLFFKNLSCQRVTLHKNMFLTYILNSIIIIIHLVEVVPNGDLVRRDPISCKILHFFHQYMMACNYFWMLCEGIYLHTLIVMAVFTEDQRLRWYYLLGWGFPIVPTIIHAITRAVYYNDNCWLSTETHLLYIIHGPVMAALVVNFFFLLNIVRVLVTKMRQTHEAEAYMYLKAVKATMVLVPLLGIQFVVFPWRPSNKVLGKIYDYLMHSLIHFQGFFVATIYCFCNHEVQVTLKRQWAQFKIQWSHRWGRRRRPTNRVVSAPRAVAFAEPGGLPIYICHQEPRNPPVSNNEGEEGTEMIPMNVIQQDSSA

T2: human calcitonin receptor (human, UniProt P30988 25-474)
T2 construct: whole, on cells; membranes of stably transfected BHK cells (Assay VII); also called hCTR; hCT
T2 sequence (looked up): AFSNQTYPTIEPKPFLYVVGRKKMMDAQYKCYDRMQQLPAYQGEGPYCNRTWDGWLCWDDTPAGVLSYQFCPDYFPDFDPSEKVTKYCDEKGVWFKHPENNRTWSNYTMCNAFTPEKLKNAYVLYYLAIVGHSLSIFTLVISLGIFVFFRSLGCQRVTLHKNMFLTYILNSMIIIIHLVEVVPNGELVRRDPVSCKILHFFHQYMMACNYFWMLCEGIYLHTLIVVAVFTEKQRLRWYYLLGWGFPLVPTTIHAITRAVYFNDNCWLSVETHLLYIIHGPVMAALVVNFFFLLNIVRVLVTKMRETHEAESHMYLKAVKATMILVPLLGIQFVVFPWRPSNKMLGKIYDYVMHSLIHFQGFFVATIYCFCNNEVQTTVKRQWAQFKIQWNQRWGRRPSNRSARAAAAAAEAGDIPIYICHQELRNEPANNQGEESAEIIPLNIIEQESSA

T3: rat amylin receptor (rat calcitonin receptor + rat RAMP 3) (rat, UniProt P32214 25-516; Q9JJ73 23-147)
T3 construct: whole, on cells; membranes of transiently transfected BHK tk'ts 13 cells (Assay VI); also called rAmylin-R; rat amylin 3(a) receptor
T3 sequence (looked up) 1: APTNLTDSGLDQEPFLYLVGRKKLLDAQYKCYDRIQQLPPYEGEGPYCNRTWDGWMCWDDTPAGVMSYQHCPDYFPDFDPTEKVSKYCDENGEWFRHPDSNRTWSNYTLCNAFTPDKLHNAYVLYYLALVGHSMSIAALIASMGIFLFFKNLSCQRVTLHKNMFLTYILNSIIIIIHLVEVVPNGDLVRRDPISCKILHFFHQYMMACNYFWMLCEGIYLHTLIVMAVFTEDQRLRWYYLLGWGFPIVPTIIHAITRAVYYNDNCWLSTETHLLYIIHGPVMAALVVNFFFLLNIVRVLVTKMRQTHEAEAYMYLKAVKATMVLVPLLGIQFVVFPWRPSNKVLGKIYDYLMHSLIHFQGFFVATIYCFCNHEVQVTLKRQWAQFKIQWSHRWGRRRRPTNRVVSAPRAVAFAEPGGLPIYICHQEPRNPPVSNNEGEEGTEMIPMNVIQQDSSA
T3 sequence (looked up) 2: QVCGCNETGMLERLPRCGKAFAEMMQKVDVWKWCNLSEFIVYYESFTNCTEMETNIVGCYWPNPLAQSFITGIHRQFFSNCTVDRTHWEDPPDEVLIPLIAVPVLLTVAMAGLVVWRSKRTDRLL


Assays:
rat calcitonin receptor [1] = target: T1, rat calcitonin receptor; assay: IC50 on rat calcitonin receptor divided by IC50 on rat amylin receptor (SPA competition)
[2] = target: T2, human calcitonin receptor; assay: IC50 on human calcitonin receptor divided by IC50 on human amylin receptor (SPA competition)
Protocol: The resulting pellet was resuspended, homogenized and centrifuged (20.000 rpm, 15 min) in a buffer containing 20 mM Na-HEPES and 0.1 mM EDTA (pH 7.4, buffer 2). The resulting pellet was resuspended in buffer 2 and protein concentration was measured (BCA protein Assay, Pierce). The homogenate was kept cold during the whole procedure. The membranes were kept at −80° C. until use. The assay was performed in a 384 well Optiplate (PerkinElmer) in a total volume of 40 ul. Membranes were mixed with SPA beads. Final concentration of membranes 35 ng/μL final and SPA beads was 0.05 mg/well. Test-compounds were dissolved in DMSO and further diluted in assay buffer (50 mM Hepes, pH 7.4, 1 mM CaCl2, 5 mM MgCl₂, 0.1% OA and 0.02% Tween20). […] The final mixture was incubated with shaking at 400 rpm for 120 min at 25° C. prior to centrifugation (1500 rpm, 10 min). Samples were analyzed on TopCounter™ (Packard). The IC₅₀ was calculated using (one site binding competition analysis) GraphPad Prism5 as a measure of receptor affinity.
Membranes were prepared in the following way; the cells were rinsed with PBS and incubated with Versene for approximately 5 min before harvesting. The cells were flushed with PBS and the cell-suspension was centrifuged for 5 min at 1000 rpm. Cells were homogenized (Ultrathurrax) in a buffer containing 20 mM Na-HEPES and 10 mM EDTA (pH 7.4) and centrifuged at 20.000 rpm for 15 min. The resulting pellet was resuspended, homogenized and centrifuged (20.000 rpm, 15 min) in a buffer containing 20 mM Na-HEPES and 0.1 mM EDTA (pH 7.4, buffer 2). The resulting pellet was resuspended in buffer 2 and protein concentration was measured (BCA protein Assay, Pierce). The homogenate was kept cold during the whole procedure. The membranes were kept at −80° C. until use. Assay was performed in a 384 well Optiplate (PerkinElmer) in a total volume of 40 ul. Membranes were mixed with SPA beads.

rat calcitonin receptor [3] = target: T1, rat calcitonin receptor; assay: SPA competition with 125I-calcitonin, membranes of BHK cells with rat calcitonin receptor (Assay VIII)
[4] = target: T3, rat amylin receptor (rat calcitonin …); assay: SPA competition with 125I-rat amylin, membranes of BHK cells with rat calcitonin receptor + rat RAMP3 (Assay VI)

Row | Binder | Ratio rCT/rAmylin binding (rat calcitonin receptor [1]) | Ratio hCT/hAmylin binding [2] | IC50 (rat calcitonin receptor [3]) | IC50 [4]
1 | {C20 diacid-γGlu}-KCNTATCATQRLANFLRHSSPNFGAIPSSTPVGSETY-NH2 (disulfide 2-7 (inferred), analogue of human amylin; also called compound 28) | 44.9 | 20.5 | 54.9 nM | 1.22 nM
2 | {C20 diacid-γGlu}-KCNTATCATQRLAEFLRHSSPNFGAIPSSTNVGPNTY-NH2 (disulfide 2-7 (inferred), analogue of human amylin; also called compound 32) | 34 | 10.9 | 5.98 nM | 0.176 nM
3 | {C20 diacid-γGlu}-KCNTATCATQRLAEFLRHSSPNFGAIPSSTNVGHNTY-NH2 (disulfide 2-7 (inferred), analogue of human amylin; also called compound 17) | 35.9 | 12.5 | 97.2 nM | 2.71 nM
4 | {C20 diacid-γGlu}-KCNTATCATQRLANFLRHSSPNFGAIPSSTNVGPETY-NH2 (disulfide 2-7 (inferred), analogue of human amylin; also called compound 29) | 67 | 13.9 | 21.6 nM | 0.322 nM
5 | {C20 diacid-γGlu}-KCNTATCATQRLAEFLRHSSPNFGAIPSSTPVGSNTY-NH2 (disulfide 2-7 (inferred), analogue of human amylin; also called compound 31) | 42.8 | 16 | 26.5 nM | 0.619 nM
6 | K([AEEA-γGlu-C20 diacid])CNTATCATQRLANFLRHSSPNFGAIPSSTPVGSNTY-NH2 (disulfide 2-7 (inferred), analogue of human amylin; also called compound 49) | 47.7 | 10.8 | 51.4 nM | 1.08 nM
7 | {C20 diacid-γGlu}-KCNTATCATQRLAEFLRHSSPNFGAPLSSTNVGSNTY-NH2 (disulfide 2-7 (inferred), analogue of human amylin; also called compound 7) [N^α1-[(4S)-4-carboxy-4-(19-carboxynonadecanoylamino)butanoyl]-[Glu14,Arg17,Pro21,Pro26]-h-amylin] | 42 | 16.5 | 47.2 nM | 1.12 nM
8 | {C20 diacid-γGlu}-KCNTATCATQRLAHFLRHSSPNFGAIPSSTNVGSETY-NH2 (disulfide 2-7 (inferred), analogue of human amylin; also called compound 30) | 36.1 | 23.6 | 114 nM | 3.14 nM
9 | K([γGlu-C20 diacid])CNTATCATQRLANFLRHSSPNFGAIPSSTNVGSETY-NH2 (disulfide 2-7; N-terminus assumed; SMILES CC[C@H](C)[C@H](NC(=O)[C@H](C)NC(=O)CNC(=O)[C@H](Cc1ccccc1)NC(=O)[C@H](CC(N)=O)NC(=O)[C@@H]1CCCN1C(=O)[C@H](CO)NC(=O)[C@H](CO)NC(=O)[C@H](Cc1c[nH]cn1)NC(=O)[C@H](CCCNC(=N)N)NC(=O)[C@H](CC(C)C)NC(=O)[C@H](Cc1ccccc1)NC(=O)[C@H](CC(N)=O)NC(=O)[C@H](C)NC(=O)[C@H](CC(C)C)NC(=O)[C@H](CCCNC(=N)N)NC(=O)[C@H](CCC(N)=O)NC(=O)[C@@H](NC(=O)[C@H](C)NC(=O)[C@@H]1CSSC[C@H](NC(=O)[C@@H](N)CCCCNC(=O)CC[C@H](NC(=O)CCCCCCCCCCCCCCCCCCC(=O)O)C(=O)O)C(=O)N[C@@H](CC(N)=O)C(=O)N[C@@H]([C@@H](C)O)C(=O)N[C@@H](C)C(=O)N[C@@H]([C@@H](C)O)C(=O)N1)[C@@H](C)O)C(=O)N1CCC[C@H]1C(=O)N[C@@H](CO)C(=O)N[C@@H](CO)C(=O)N[C@H](C(=O)N[C@@H](CC(N)=O)C(=O)N[C@H](C(=O)NCC(=O)N[C@@H](CO)C(=O)N[C@@H](CCC(=O)O)C(=O)N[C@H](C(=O)N[C@@H](Cc1ccc(O)cc1)C(N)=O)[C@@H](C)O)C(C)C)[C@@H](C)O, analogue of human amylin; also called compound 27) [N^ε1-[(4S)-4-carboxy-4-(19-carboxynonadecanoylamino)butanoyl]-[Arg17,Pro21,Pro27,Glu35]-h-amylin] | 147 | 41.3 | 90.2 nM | 0.614 nM
10 | K([AEEA-γGlu-C20 diacid])CNTATCATQRLANFLRHSSPNFGAIPSSTNVGPNTY-NH2 (disulfide 2-7 (inferred), analogue of human amylin; also called compound 50) | 81.7 | 36 | 5.63 nM | 0.069 nM
11 | {C20 diacid-γGlu}-KCNTATCATQRLAEFLRHSSPNFGAIPSSTNVGSRTY-NH2 (disulfide 2-7 (inferred), analogue of human amylin; also called compound 16) | 45.6 | 19.1 | 55.2 nM | 1.21 nM
12 | K([γGlu-C20 diacid])CNTATCATQRLAEFLRHSSPNFGAIPSSTNVGSRTY-NH2 (disulfide 2-7 (inferred), analogue of human amylin; also called compound 51) | 119 | 37.5 | 62 nM | 0.523 nM
13 | K([AEEA-AEEA-γGlu-C20 diacid])CNTATCATQRLANFLRHSSPNFGAIPSSTNVGSETY-NH2 (disulfide 2-7 (inferred), analogue of human amylin; also called compound 25) | 37.7 | 56.5 | 131 nM | 3.48 nM
14 | {C20 diacid-γGlu}-KCNTATCATQRLAEFLRHSSPNFGAIPSSTNVGSETY-NH2 (disulfide 2-7 (inferred), analogue of human amylin; the name is printed with N^α1 twice; also called compound 22) | 28.5 | 12.3 | 62.5 nM | 2.19 nM
15 | K([AEEA-γGlu-C20 diacid])CNTATCATQRLANFLRHSSPNFGAIPSSTNVGSETY-NH2 (disulfide 2-7 (inferred), analogue of human amylin; also called compound 26) | 309 | 47.5 | 152 nM | 0.491 nM
16 | K([γGlu-C20 diacid])CNTATCATQRLANFLRHSSPNFGAIPSSTNVGSKTY-NH2 (disulfide 2-7 (inferred), analogue of human amylin; also called compound 35) [N^ε1-[(4S)-4-carboxy-4-(19-carboxynonadecanoylamino)butanoyl]-[Arg17,Pro21,Pro27,Lys35]-h-amylin] | 65.1 | 50.3 | 61.7 nM | 0.948 nM
